Laboratory results: US12590288B2, “Method of treating an inflammatory disease by administering an agent which binds a surface receptor on a tuft cell that induces an ILC class 2 inflammatory response” (The Broad Institute, Inc., priority 2017, dated 2026)
Where “and” joins values, the source holds several entries; their conditions need not be identical. Equal values may be shown once.

Key:
[1] = system: small intestinal organoids; experiment: RANKL-mediated in-vitro differentiation of M cells in intestinal organoids (scRNA-seq); type: cell-based, mouse; conditions: 5,434 cells from organoids treated with RANKL for 0, 3 and 6 days
Description: Organoid cultures. Following crypt isolation from the whole small intestine^142, the single cell suspension was resuspended in Matrigel® (BD Bioscience) with 1 μM Jagged-1 peptide (Ana-Spec). Roughly 300 crypts embedded in 25 μl of Matrigel® were seeded onto each well of a 24-well plate. Once solidified, the Matrigel® was incubated in 600 μl culture medium (Advanced DMEM/F12, Invitrogen) with streptomycin/penicillin and glutamax and supplemented with EGF (100 ng/mL, Peprotech®), R-Spondin-1 (600 ng/mL, R&D), Noggin (100 ng/mL, Peprotech®), Y-276432 dihydrochloride monohydrate (10 μM, Tocris™)), N-acetyl-1-cysteine (1 μM, Sigma-Aldrich), N2 (1×, Life Technologies), B27 (1×, Life Technologies) and Wnt3A (25 ng/mL, R&D Systems). Fresh media was replaced on day 3, and organoids were passaged by dissociation with TrypLE and resuspended in new Matrigel® on day 6 with a 1:3 split ratio. For selected experiments, organoids were additionally treated with RANKL (100 ng/mL, Biolegends). For T helper cell co-culture experiments, organoids were cultured with Th1, Th2, Th17 or iTregs. Roughly 10,000 T helper cells were added to each well of 500 organoids and were supplemented either to the medium or suspended in the Matrigel®. Treated organoids were dissociated and subjected to scRNA-seq using both methods. […]

[2] = system: cultured epithelia from proximal or distal trachea; experiment: rIL-13-induced mucous metaplasia in air-liquid interface cultured tracheal epithelia; type: cell-based, mouse; conditions: proximal vs distal tracheal epithelium ALI cultures, rIL-13 vs control, 72 hours
Description: Transwell cultures. Cells were cultured and expanded in complete SAGM (small airway epithelial cell growth medium; Lonza, CC-3118) containing TGF-β/BMP4/WNT antagonist cocktails and 5 μM Rock inhibitor Y-27632 (Selleckbio, S1049). To initiate air-liquid interface (ALI) cultures, airway basal stem cells were dissociated from mouse tracheas and seeded onto transwell membranes. After reaching confluence, media was removed from the upper chamber. Mucociliary differentiation was performed with PneumaCult-ALI Medium (StemCell, 05001). Differentiation of airway basal stem cells on an air-liquid interface was followed by directly visualizing beating cilia in real time after 10-14 days. […]
Statistical analysis of proximodistal mucous metaplasia. For the analysis in FIG. 38H,I, the extent of goblet cell hyperplasia was assessed using counts of Muc5ac^+ goblet cells, normalized to counts of GFP^+ ciliated cells. To quantify differences in the count values between the samples in different conditions (n=6, Foxj 1-GFP mice), Applicants fit a negative binomial regression using the ‘glm.nb’ function from the ‘MASS’ package in R. Pairwise comparisons between means for each condition were computed using post hoc tests and p-values were adjusted for multiple comparisons using Tukey's HSD, implemented using the function ‘pairs’ from the ‘emeans’ package in R.

| Molecule | differentiated M cells identified by unsupervised clustering [1] | induction of goblet cell differentiation (Muc5ac+ goblet cells normalized to GFP+ ciliated cells) [2] |
| --- | --- | --- |
| RANKL: cytokine added to small intestinal organoids as ex vivo model of M cell differentiation (protein, UniProt O35235 139-316, looked up) Tumor necrosis factor ligand …: FSGAPAMMEGSWLDVAQRGKPEAQPFAHLTINAASIPSGSHKVTLSSWYHDRGWAKISNMTLSNGKLRVNQDGFYYLYANICFRHHETSGSVPTDYLQLMVYVVKTSIKIPSSHNLMKGGSTKNWSGNSEFHFYSINVGGFFKLRAGEEISIQVSNPSLLDPDQDATYFGAFKVQDID | 384 cells and 378 cells | – |
| rIL-13: recombinant murine IL-13 used to induce mucous metaplasia in cultured airway epithelium (protein, UniProt P20109 19-131, looked up) Interleukin-13: APGPVPRSVSLPLTLKELIEELSNITQDQTPLCNGSMVWSVDLAAGGFCVALDSLTNISNCNAIYRTQRILHGLCNRKAPTTVSSLPDTKIEVAHFITKLLSYTKQLFRHGPF | – | much higher induction of goblet cell differentiation in the distal epithelium |
